According to publication PMC5549892:

Target: BG505 SOSIP.664 gp140 envelope glycoprotein trimer (HIV-1 (BG505))
Assay: native gel or EMSA

“BG505 SOSIP.664 gp140 envelope glycoprotein trimer (complex)” gave a stoichiometry N of 3.
